Measured values: patent publication US8852954

Biological target: mouse IgG1 (subtype 1 IgG antibody) (Mus musculus) (UniProt P01868)
Test: SPR
Settings: RNA with 5'-dA5 (1-5)

For “AAAAACGCUGAAGAGAAGACGGAAGGAGACGAAGCGT [MIG-m034]”, the Kd (LNA at C6 G7 C35 G36, 3'-dT37, BIACORE 3000, 1:1 Langmuir) was less than 0.001 nM and the Kd (LNA at C6 G7 C35 G36, 3'-dT37, second measurement (Example 3), differs from Table 2) was 0.634 nM.

With “AAAAAGCGCUGAAGAGAAGACGGAAGGAGACGAAGCGC [MIG-m037]” the Kd (DNA at 6-9 and 35-38, BIACORE 3000, 1:1 Langmuir) was 1.7 nM.

Sequence “AAAAAGCGCUGAAGAGAAGACGGAAGGAGACGAAGCGC [MIG-m041]” has a Kd (DNA at 6-9 and 35-38, 2'-OMe U10, BIACORE 3000, 1:1 Langmuir) of less than 0.001 nM.

In the case of “AAAAAGCGCUGAAGAGAAGACGGAAGGAGACGAAGCGC [MIG-m040]”, the Kd (2'-OMe U10, BIACORE 3000, 1:1 Langmuir) is reported as 0.411 nM.

“AAAAAGCGCUGAAGAGAAGACGGAAGGAGACGAAGCGC [MIG-m036]” was tested, and the Kd (DNA at G6 C7 G37 C38, BIACORE 3000, 1:1 Langmuir) was 5.48 nM.

“AAAAAGCUGAAGAGAAGACGGAAGGAGACGAAGCT [MIG-m035]” was tested, and the Kd (LNA at G6 C7 G33 C34, 3'-dT35, BIACORE 3000, 1:1 Langmuir) was less than 0.001 nM.

With “AAAAACGCUGAAGAGAAGACGGAAGGAGACGAAGCGT [MIG-m042]” the Kd (LNA at C6 G7 C35 G36, 2'-OMe U9, 3'-dT37, BIACORE 3000, 1:1 Langmuir) was less than 0.001 nM.
